Tests used:
Experiment in all cases: holdup assay
Set-up in all cases: key: below the threshold = too weak to quantify, mostly under pKd 3.1 to 4
LNX1_1, Q8TBB1 = target: LNX1_1, Q8TBB1
GORASP1, Q9BQQ3 = target: GORASP1, Q9BQQ3
RADIL, Q96JH8 = target: T1, RADIL, Q96JH8
T1 sequence (Q96JH8 971-1071, limits assumed, looked up): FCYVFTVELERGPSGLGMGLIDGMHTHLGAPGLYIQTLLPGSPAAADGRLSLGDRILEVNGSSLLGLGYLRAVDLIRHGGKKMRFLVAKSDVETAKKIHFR

GORASP2, Q9H8Y8 = target: GORASP2, Q9H8Y8
LNX1_3, Q8TBB1 = target: LNX1_3, Q8TBB1
LNX1_3, Q8TBB1, sequence (Q8TBB1 500-596): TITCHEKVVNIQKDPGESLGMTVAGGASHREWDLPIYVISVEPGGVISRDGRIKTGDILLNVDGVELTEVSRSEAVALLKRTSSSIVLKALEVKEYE

MAGI1_1, Q96QZ7 = target: MAGI1_1, Q96QZ7
MAGI1_1, Q96QZ7, sequence (Q96QZ7 1-106): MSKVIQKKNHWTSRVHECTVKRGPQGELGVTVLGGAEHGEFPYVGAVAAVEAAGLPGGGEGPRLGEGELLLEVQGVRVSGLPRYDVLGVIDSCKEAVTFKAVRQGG

SCRIB_1, Q14160 = target: SCRIB_1, Q14160
SCRIB_1, Q14160, sequence (Q14160 718-814): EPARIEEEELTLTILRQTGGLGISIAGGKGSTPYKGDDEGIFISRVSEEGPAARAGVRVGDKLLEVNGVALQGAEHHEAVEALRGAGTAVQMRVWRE

GRIP1_5, Q9Y3R0 = target: T2, GRIP1_5, Q9Y3R0
T2 sequence (Q9Y3R0 568-668, limits assumed, looked up): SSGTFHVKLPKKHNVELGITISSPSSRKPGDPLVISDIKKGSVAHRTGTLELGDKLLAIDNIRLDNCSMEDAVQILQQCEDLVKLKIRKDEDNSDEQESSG

Inadl_10, Q8NI35 = target: Inadl_10, Q8NI35
Inadl_10, Q8NI35, sequence (Q8NI35 1673-1763): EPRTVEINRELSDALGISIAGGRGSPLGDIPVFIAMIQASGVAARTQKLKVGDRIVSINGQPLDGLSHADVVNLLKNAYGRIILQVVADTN

GRIP1_2, Q9Y3R0 = target: T3, GRIP1_2, Q9Y3R0
T3 sequence (Q9Y3R0 145-248, limits assumed, looked up): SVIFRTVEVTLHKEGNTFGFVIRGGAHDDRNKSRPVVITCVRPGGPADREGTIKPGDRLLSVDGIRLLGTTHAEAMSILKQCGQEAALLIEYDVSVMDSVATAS

RHPN1, Q8TCX5 = target: T4, RHPN1, Q8TCX5
T4 sequence (Q8TCX5 508-602, limits assumed, looked up): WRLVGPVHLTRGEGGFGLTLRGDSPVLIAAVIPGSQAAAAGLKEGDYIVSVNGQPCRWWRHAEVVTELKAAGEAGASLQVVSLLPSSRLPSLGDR

GOPC, Q9HD26 = target: GOPC, Q9HD26
DLG5_1, Q8TDM6 = target: DLG5_1, Q8TDM6
DLG5_1, Q8TDM6, sequence (Q8TDM6 617-713): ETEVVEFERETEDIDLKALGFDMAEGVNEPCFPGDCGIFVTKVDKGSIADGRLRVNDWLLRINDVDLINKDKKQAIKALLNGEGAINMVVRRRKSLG

GRIP1_3, Q9Y3R0 = target: T5, GRIP1_3, Q9Y3R0
T5 sequence (Q9Y3R0 247-346, limits assumed, looked up): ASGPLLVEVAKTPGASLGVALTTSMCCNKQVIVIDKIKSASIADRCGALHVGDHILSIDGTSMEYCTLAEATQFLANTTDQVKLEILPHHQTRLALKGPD

RAPGEF6, Q8TEU7 = target: T6, RAPGEF6, Q8TEU7
T6 sequence (Q8TEU7 525-625, limits assumed, looked up): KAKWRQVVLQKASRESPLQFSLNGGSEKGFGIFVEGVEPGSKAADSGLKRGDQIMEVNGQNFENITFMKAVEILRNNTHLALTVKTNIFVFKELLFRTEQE

LIN7A, O14910 = target: T7, LIN7A, O14910
T7 sequence (O14910 103-200, limits assumed, looked up): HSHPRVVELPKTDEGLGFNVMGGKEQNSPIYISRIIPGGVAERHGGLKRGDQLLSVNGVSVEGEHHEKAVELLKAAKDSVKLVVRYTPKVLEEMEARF

FRMPD1, Q5SYB0 = target: T8, FRMPD1, Q5SYB0
T8 sequence (Q5SYB0 52-145, limits assumed, looked up): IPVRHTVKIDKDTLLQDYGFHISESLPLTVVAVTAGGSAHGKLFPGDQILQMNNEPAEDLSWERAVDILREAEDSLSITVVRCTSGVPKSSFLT

DLG1_1, Q12959 = target: DLG1_1, Q12959
DLG4_3, P78352 = target: DLG4_3, P78352
DLG4_3, P78352, sequence (P78352 306-403): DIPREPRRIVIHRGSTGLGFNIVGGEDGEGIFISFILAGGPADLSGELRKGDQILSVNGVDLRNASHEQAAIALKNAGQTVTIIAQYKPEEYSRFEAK

PDZRN3_1, Q9UPQ7 = target: T9, PDZRN3_1, Q9UPQ7
T9 sequence (Q9UPQ7 244-349, limits assumed, looked up): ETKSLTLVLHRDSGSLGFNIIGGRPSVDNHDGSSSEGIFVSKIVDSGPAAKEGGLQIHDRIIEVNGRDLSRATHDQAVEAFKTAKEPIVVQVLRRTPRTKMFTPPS

HTRA1, Q92743 = target: HTRA1, Q92743
HTRA1, Q92743, sequence (Q92743 360-477): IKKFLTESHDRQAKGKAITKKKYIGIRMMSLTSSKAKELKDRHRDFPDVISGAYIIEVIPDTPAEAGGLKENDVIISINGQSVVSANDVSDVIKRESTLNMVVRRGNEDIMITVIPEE

NHERF4_4, Q86UT5 = target: NHERF4_4, Q86UT5
NHERF4_4, Q86UT5, sequence (Q86UT5 464-550): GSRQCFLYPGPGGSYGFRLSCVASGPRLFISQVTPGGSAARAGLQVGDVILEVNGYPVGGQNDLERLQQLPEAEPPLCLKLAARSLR

PDZRN4_1, Q6ZMN7 = target: PDZRN4_1, Q6ZMN7
PDZRN4_1, Q6ZMN7, sequence (Q6ZMN7 213-318): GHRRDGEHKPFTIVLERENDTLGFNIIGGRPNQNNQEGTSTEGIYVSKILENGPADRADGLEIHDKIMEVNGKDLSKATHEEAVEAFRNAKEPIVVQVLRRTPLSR

TJP2_1, Q9UDY2 = target: TJP2_1, Q9UDY2
TJP2_1, Q9UDY2, sequence (Q9UDY2 24-128): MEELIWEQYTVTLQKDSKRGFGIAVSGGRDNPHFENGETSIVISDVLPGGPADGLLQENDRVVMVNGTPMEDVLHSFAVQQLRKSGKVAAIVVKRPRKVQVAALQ

MAST2, Q6P0Q8 = target: MAST2, Q6P0Q8
MAST2, Q6P0Q8, sequence (Q6P0Q8 1099-1202): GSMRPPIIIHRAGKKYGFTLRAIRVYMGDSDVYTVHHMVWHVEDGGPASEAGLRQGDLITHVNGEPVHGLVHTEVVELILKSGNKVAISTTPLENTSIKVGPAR

TJP3_3, O95049 = target: T10, TJP3_3, O95049
T10 sequence (O95049 375-456, limits assumed, looked up): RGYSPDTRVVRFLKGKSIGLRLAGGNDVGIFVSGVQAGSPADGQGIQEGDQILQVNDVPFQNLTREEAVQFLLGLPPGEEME

PDLIM1, O00151 = target: PDLIM1, O00151
PDLIM1, O00151, sequence (O00151 1-87): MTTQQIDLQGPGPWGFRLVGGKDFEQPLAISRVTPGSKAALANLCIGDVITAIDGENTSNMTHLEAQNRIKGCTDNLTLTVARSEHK

NHERF4_2, Q86UT5 = target: NHERF4_2, Q86UT5
NHERF4_2, Q86UT5, sequence (Q86UT5 220-308): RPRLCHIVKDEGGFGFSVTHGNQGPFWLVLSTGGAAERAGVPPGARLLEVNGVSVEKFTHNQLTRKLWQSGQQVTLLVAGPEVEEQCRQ

[1] = modified: phospho on T at position -2 from the C-terminal residue
[2] = plain residues with an end cap or a label only (N-terminal biotin on a linker: ado-ado)

GORASP1, Q9BQQ3, sequence (Q9BQQ3 1-208): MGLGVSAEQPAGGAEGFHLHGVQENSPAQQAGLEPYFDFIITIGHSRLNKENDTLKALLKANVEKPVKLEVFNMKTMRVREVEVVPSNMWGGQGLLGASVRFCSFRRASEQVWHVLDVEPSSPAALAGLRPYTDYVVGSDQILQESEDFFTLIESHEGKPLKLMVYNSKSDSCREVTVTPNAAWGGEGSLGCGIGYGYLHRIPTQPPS
LNX1_1, Q8TBB1, sequence (Q8TBB1 261-371): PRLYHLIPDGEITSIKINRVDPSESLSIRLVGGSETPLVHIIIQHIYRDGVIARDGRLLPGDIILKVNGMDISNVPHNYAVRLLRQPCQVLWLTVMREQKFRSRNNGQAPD

## SRSRRRETAL [HPV33-E6_-2P, P06427]
LNX1_1, Q8TBB1; [1]
  pKd: below the threshold
GORASP1, Q9BQQ3; [1]
  pKd: below the threshold
RADIL, Q96JH8; [1]
  pKd: below the threshold
GORASP2, Q9H8Y8; [1]
  pKd: below the threshold
LNX1_3, Q8TBB1; [1]
  pKd: below the threshold
MAGI1_1, Q96QZ7; [1]
  pKd: below the threshold
SCRIB_1, Q14160; [1]
  pKd: below the threshold
GRIP1_5, Q9Y3R0; [1]
  pKd: below the threshold
Inadl_10, Q8NI35; [1]
  pKd: below the threshold
GRIP1_2, Q9Y3R0; [1]
  pKd: below the threshold
RHPN1, Q8TCX5; [1]
  pKd: below the threshold
GOPC, Q9HD26; [1]
  pKd: below the threshold
DLG5_1, Q8TDM6; [1]
  pKd: below the threshold
GRIP1_3, Q9Y3R0; [1]
  pKd: below the threshold
RAPGEF6, Q8TEU7; [1]
  pKd: below the threshold
LIN7A, O14910; [1]
  pKd: below the threshold
FRMPD1, Q5SYB0; [1]
  pKd: below the threshold
DLG1_1, Q12959; [1]
  pKd: below the threshold
DLG4_3, P78352; [1]
  pKd: below the threshold
PDZRN3_1, Q9UPQ7; [1]
  pKd: below the threshold
HTRA1, Q92743; [1]
  pKd: below the threshold
NHERF4_4, Q86UT5; [1]
  pKd: below the threshold
PDZRN4_1, Q6ZMN7; [1]
  pKd: below the threshold
TJP2_1, Q9UDY2; [1]
  pKd: below the threshold
MAST2, Q6P0Q8; [1]
  pKd: 3.62
TJP3_3, O95049; [1]
  pKd: below the threshold
PDLIM1, O00151; [1]
  pKd: below the threshold
NHERF4_2, Q86UT5; [1]
  pKd: below the threshold

## DLLGGGSDSI [TNRC6B, Q9UPQ9]
LNX1_1, Q8TBB1; [2]
  pKd: 3.76
GORASP1, Q9BQQ3; [2]
  pKd: below the threshold
RADIL, Q96JH8; [2]
  pKd: below the threshold
GORASP2, Q9H8Y8; [2]
  pKd: below the threshold
LNX1_3, Q8TBB1; [2]
  pKd: below the threshold
MAGI1_1, Q96QZ7; [2]
  pKd: below the threshold
SCRIB_1, Q14160; [2]
  pKd: below the threshold
GRIP1_5, Q9Y3R0; [2]
  pKd: below the threshold
Inadl_10, Q8NI35; [2]
  pKd: below the threshold
GRIP1_2, Q9Y3R0; [2]
  pKd: below the threshold
RHPN1, Q8TCX5; [2]
  pKd: 3.79
GOPC, Q9HD26; [2]
  pKd: below the threshold
DLG5_1, Q8TDM6; [2]
  pKd: below the threshold
GRIP1_3, Q9Y3R0; [2]
  pKd: below the threshold
RAPGEF6, Q8TEU7; [2]
  pKd: below the threshold
LIN7A, O14910; [2]
  pKd: below the threshold
FRMPD1, Q5SYB0; [2]
  pKd: below the threshold
DLG1_1, Q12959; [2]
  pKd: below the threshold
DLG4_3, P78352; [2]
  pKd: below the threshold
PDZRN3_1, Q9UPQ7; [2]
  pKd: below the threshold
HTRA1, Q92743; [2]
  pKd: below the threshold
NHERF4_4, Q86UT5; [2]
  pKd: below the threshold
PDZRN4_1, Q6ZMN7; [2]
  pKd: below the threshold
TJP2_1, Q9UDY2; [2]
  pKd: below the threshold
MAST2, Q6P0Q8; [2]
  pKd: below the threshold
TJP3_3, O95049; [2]
  pKd: below the threshold
PDLIM1, O00151; [2]
  pKd: below the threshold
NHERF4_2, Q86UT5; [2]
  pKd: below the threshold

## QLKSGRDSTV [TMEM178A, Q8NBL3]
LNX1_1, Q8TBB1; [2]
  pKd: below the threshold
GORASP1, Q9BQQ3; [2]
  pKd: below the threshold
RADIL, Q96JH8; [2]
  pKd: 3.51
GORASP2, Q9H8Y8; [2]
  pKd: below the threshold
LNX1_3, Q8TBB1; [2]
  pKd: below the threshold
MAGI1_1, Q96QZ7; [2]
  pKd: below the threshold
SCRIB_1, Q14160; [2]
  pKd: 3.56
GRIP1_5, Q9Y3R0; [2]
  pKd: below the threshold
Inadl_10, Q8NI35; [2]
  pKd: below the threshold
GRIP1_2, Q9Y3R0; [2]
  pKd: below the threshold
RHPN1, Q8TCX5; [2]
  pKd: 4.06
GOPC, Q9HD26; [2]
  pKd: 3.57
DLG5_1, Q8TDM6; [2]
  pKd: 3.83
GRIP1_3, Q9Y3R0; [2]
  pKd: below the threshold
RAPGEF6, Q8TEU7; [2]
  pKd: below the threshold
LIN7A, O14910; [2]
  pKd: below the threshold
FRMPD1, Q5SYB0; [2]
  pKd: below the threshold
DLG1_1, Q12959; [2]
  pKd: 4.11
DLG4_3, P78352; [2]
  pKd: below the threshold
PDZRN3_1, Q9UPQ7; [2]
  pKd: 3.74
HTRA1, Q92743; [2]
  pKd: 4.4
NHERF4_4, Q86UT5; [2]
  pKd: 3.74
PDZRN4_1, Q6ZMN7; [2]
  pKd: 3.53
TJP2_1, Q9UDY2; [2]
  pKd: below the threshold
MAST2, Q6P0Q8; [2]
  pKd: 4.08
TJP3_3, O95049; [2]
  pKd: 3.5
PDLIM1, O00151; [2]
  pKd: below the threshold
NHERF4_2, Q86UT5; [2]
  pKd: 3.62

## TKEIPNCTSV [SORCS3, Q9UPU3]
LNX1_1, Q8TBB1; [2]
  pKd: 3.75
GORASP1, Q9BQQ3; [2]
  pKd: below the threshold
RADIL, Q96JH8; [2]
  pKd: 4.05
GORASP2, Q9H8Y8; [2]
  pKd: 3.75
LNX1_3, Q8TBB1; [2]
  pKd: below the threshold
MAGI1_1, Q96QZ7; [2]
  pKd: below the threshold
SCRIB_1, Q14160; [2]
  pKd: 4.53
GRIP1_5, Q9Y3R0; [2]
  pKd: below the threshold
Inadl_10, Q8NI35; [2]
  pKd: 3.95
GRIP1_2, Q9Y3R0; [2]
  pKd: below the threshold
RHPN1, Q8TCX5; [2]
  pKd: 3.81
GOPC, Q9HD26; [2]
  pKd: 3.95
DLG5_1, Q8TDM6; [2]
  pKd: below the threshold
GRIP1_3, Q9Y3R0; [2]
  pKd: below the threshold
RAPGEF6, Q8TEU7; [2]
  pKd: below the threshold
LIN7A, O14910; [2]
  pKd: below the threshold
FRMPD1, Q5SYB0; [2]
  pKd: below the threshold
DLG1_1, Q12959; [2]
  pKd: 4.22
DLG4_3, P78352; [2]
  pKd: 3.71
PDZRN3_1, Q9UPQ7; [2]
  pKd: 3.92
HTRA1, Q92743; [2]
  pKd: 3.82
NHERF4_4, Q86UT5; [2]
  pKd: 4.05
PDZRN4_1, Q6ZMN7; [2]
  pKd: 3.94
TJP2_1, Q9UDY2; [2]
  pKd: below the threshold
MAST2, Q6P0Q8; [2]
  pKd: 5.82
TJP3_3, O95049; [2]
  pKd: 3.54
PDLIM1, O00151; [2]
  pKd: below the threshold
NHERF4_2, Q86UT5; [2]
  pKd: 3.49

From article PMC9482650, “Quantitative fragmentomics allow affinity mapping of interactomes” (Nature Communications, 2022)
